Test results from article PMC2797330.

Target: CD4 on uninfected CEM-4 cells (human (endogenous in CEM-T4)) (UniProt P01730)
Test: flow cytometry on cells; uninfected CEM-4 cells incubated 2 h at 4°C with gp120MN (0.24 µg/ml), washed; bound gp120 detected with HIVIG (10 µg/ml) and anti-human secondary antibody; % of cells fluorescing

recombinant gp120MN (natural protein) gave a % of cells positive (gp120 bound to cells, detected with HIVIG) of 96.2 % positive.
